Entries after “also recorded” stand apart in the source; their conditions may differ. Like-named read-outs stand apart in the source and are kept apart here.
What was measured:
[1] = CSF MTX concentrations following glucarpidase (Example 1); format: in vivo, human; conditions: evaluated in two patients
Description: (§1) Cerebrospinal fluid (CSF) was collected throughout treatment. Serum was collected for analysis of anti-glucarpidase antibodies. […] Rituximab was always dosed at 500 mg/m^2.

[2] = CSF MTX and glucarpidase (Example 2)
Description: Methods. In a phase I dose-finding study of planned-use glucarpidase following HD-MTX, patients were treated with either MTX at 3 g/m^2, 6 g/m^2, or 8 g/m^2. Glucarpidase was dose-reduced to 1000 U or 2000 U and given 24 hours after MTX. […] MTX levels following glucarpidase were determined via mass spectrometry as immunoassay fails to differentiate MTX from byproducts.

[3] = Serum MTX level after outpatient HD-MTX with glucarpidase (Example 3); format: in vivo; conditions: human, intravenous, outpatient MTX 3.5 g/m^2, glucarpidase 2000 U next day, 7 treatments, 3 patients, all cases, read-out: serum MTX levels at 48 hours
CNSL = conditions: cited from earlier work
[4] = cited from earlier work
[5] = cited from earlier work; remark: listed apart in the source
[6] = Serum MTX levels before and after glucarpidase, mass spectrometry (Example 1)
Description: (§2) Patients were enrolled into two cohorts with Cohort A receiving MTX 3 g/m^2 and Cohort B receiving MTX 6 g/m^2. Glucarpidase 2000 U or 1000 U was administered 24 hours following the initiation of MTX infusion. […] In the present Example, rituximab was administered on Day 1, MTX on Day 2, glucarpidase Day 3, followed by an 11-day non-treatment period before the start of the next cycle.

[7] = Adverse events (Example 1); parameters: species or system human; conditions: in vivo
From the text: A cycle is typically 14±7 days.

[8] = system: anti-glucarpidase antibodies; assay: Anti-glucarpidase antibodies in serum (Example 1); format: in vivo, human; conditions: two patients, one result per patient
Description: as §1

[9] = format: in vivo, human
[10] = parameters: species or system human; conditions: in vivo
[11] = system: anti-glucarpidase antibodies; parameters: species or system human; conditions: in vivo
[12] = in vivo
Description: as §2

[13] = target: T1, glucarpidase enzymatic activity (Pseudomonas sp., UniProt P06621); conditions: serum from four of 22 patients with an antibody response; cited from earlier work
T1 sequence (P06621 23-415): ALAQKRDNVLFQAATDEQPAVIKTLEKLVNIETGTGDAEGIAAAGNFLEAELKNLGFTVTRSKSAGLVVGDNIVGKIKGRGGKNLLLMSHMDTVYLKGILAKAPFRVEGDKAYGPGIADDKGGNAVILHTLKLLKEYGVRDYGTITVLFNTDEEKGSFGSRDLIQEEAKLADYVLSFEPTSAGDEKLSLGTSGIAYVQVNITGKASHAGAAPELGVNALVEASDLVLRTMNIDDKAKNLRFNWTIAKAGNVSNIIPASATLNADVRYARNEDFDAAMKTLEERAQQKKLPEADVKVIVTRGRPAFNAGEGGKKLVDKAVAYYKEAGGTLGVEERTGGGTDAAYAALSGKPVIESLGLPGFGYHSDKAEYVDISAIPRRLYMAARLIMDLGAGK

[14] = in vivo; cited from earlier work
[15] = cited from earlier work; remark: listed apart in the source
[16] = system: anti-glucarpidase antibodies; conditions: in vivo; cited from earlier work
[17] = setting of MTX-related acute kidney injury
[18] = around 24 hours after glucarpidase, 8 doses
[19] = typically around 24 hours after glucarpidase

CN(Cc1cnc2nc(N)nc(N)c2n1)c1ccc(C(=O)N[C@@H](CCC(=O)O)C(=O)O)cc1 [MTX, Methotrexate]
CSF methotrexate concentrations following glucarpidase administration [1]: remained therapeutic
MTX concentrations in CSF (potentially cytotoxic) ([2]; 25 hours following MTX administration (1 hour after glucarpidase)): 10^−6 M
CSF MTX concentrations following glucarpidase (conclusion) ([2]; in vivo): remain at cytotoxic levels
concentration at 48 h [3]: < 100 nM
overall response rates (ORR) (CNSL; PCNSL, upfront setting): up to 74%
survival benefit (CNSL; retrospective analysis of 357 patients, regimens with doses 3 g/m^2): statistically significant survival benefit
blood brain barrier penetration ([4]; high doses (>1.5 g/m^2) as a rapid infusion): penetrates the blood brain barrier
share cleared via renal excretion ([4]; in vivo): 70-90%
adults sustaining acute kidney injury ([5]; HD-MTX): 2-12%
incidence of systemic toxicities (hepatic injury, pneumonitis, bone marrow suppression) ([5]; in vivo): < 10%
patients requiring MTX dose reduction [5, 17]: 14-44%
patients with premature cessation of therapy [5, 17]: 5-8%
median elevation of MTX (transient increase) [6, 18]: 290 nmol/L
range of elevation of MTX (transient increase) [6, 18]: 119 to 516 nmol/L
serum MTX levels within 15 minutes of glucarpidase ([6]; in 23/24 doses): less than 100 nmol/L
doses followed by transient increase in MTX levels above 100 nmol/L [6, 19]: 8 of 24
share of doses followed by transient increase in MTX levels above 100 nmol/L [6, 19]: 33%

B1: glucarpidase: recombinant bacterial enzyme that cleaves serum MTX to inactive metabolites (SEQ ID NO: 1) (protein)
chain: ALAQKRDNVLFQAATDEQPAVIKTLEKLVNIETGTGDAEGIAAAGNFLEAELKNLGFTVTRSKSAGLVVGDNIVGKIKGRGGKNLLLMSHMDTVYLKGILAKAPFRVEGDKAYGPGIADDKGGNAVILHTLKLLKEYGVRDYGTITVLFNTDEEKGSFGSRDLIQEEAKLADYVLSFEPTSAGDEKLSLGTSGIAYVQVNITGKASHAGAAPELGVNALVEASDLVLRTMNIDDKAKNLRFNWTIAKAGNVSNIIPASATLNADVRYARNEDFDAAMKTLEERAQQKKLPEADVKVIVTRGRPAFNAGEGGKKLVDKAVAYYKEAGGTLGVEERTGGGTDAAYAALSGKPVIESLGLPGFGYHSDKAEYVDISAIPRRLYMAARLIMDLGAGK
adverse events associated with glucarpidase administration [7]: no adverse events associated with glucarpidase administration
anti-glucarpidase antibody titer levels [8]: detectable anti-glucarpidase antibodies; also recorded: did not develop any anti-glucarpidase antibodies
reduction in serum MTX levels within 15 minutes ([9]; glucarpidase 1000 U (14 treatments) or 2000 U (36 treatments), following 49/50 doses): ≥ 95%
doses with at least a 95% reduction in serum MTX levels within 15 minutes ([9]; glucarpidase 1000 U or 2000 U): 49/50
decrease in serum MTX levels, remaining dose ([9]; in vivo): 93%
efficacy after repeated doses and antibody formation ([9]; low-dose glucarpidase): remains effective even after repeated doses and despite the formation of anti-glucarpidase antibodies
reduction of MTX levels (conclusion) ([9]; low-dose glucarpidase): > 95%
glucarpidase in the CSF ([2]; in vivo): not detected
grade 3 events [10]: no grade 3 events
grade 4 events [10]: only one grade 4 anaphylactic reaction
patients with anti-glucarpidase antibodies detected [11]: 6 of 8
decrease in serum MTX levels, remaining dose [12]: 93%
inhibition of glucarpidase enzymatic activity in vitro by patient serum [13]: 28-58%
half-life [14]: 6 to 9 h
volume of distribution [14]: 3.6 L
safety and efficacy at approved dose ([15]; 50 units/kg, patients with delayed MTX elimination from renal impairment): safe and efficacious
patients reporting nausea, vomiting, hypotension, paresthesias, flushing, and headache ([15]; in vivo): < 3%
antibody formation post glucarpidase [16]: 37-43%
patients developing antibodies [16]: roughly 17%
doses with at least a 95% reduction in serum MTX levels within 15 minutes ([6]; glucarpidase 2000 U or 1000 U): 23/24
share of doses with at least a 95% reduction in serum MTX levels within 15 minutes ([6]; glucarpidase 2000 U or 1000 U): 96%
reduction in serum MTX levels within 15 minutes of administration ([6]; glucarpidase 2000 U or 1000 U 24 h after MTX 3 or 6 g/m^2, in 23/24 doses): ≥ 95%
effect on serum MTX levels (summary) ([6]; low-dose glucarpidase 24 hours after MTX): rapid reduction in serum MTX levels
